Results taken from patent US20240174765A1 (ACADEMIA SINICA, published 2024).

Columns and labels:
[1] = molecular target: T1, enolase 1 (ENO1), endogenous in CL1-5 human lung cancer cells (human, UniProt P06733 2-434); experiment: flow cytometry on live cells
T1 construct: whole, on cells; Used for ENO1 on the surface of live or fixed CL1-5 cells, and for endogenous ENO1 in CL1-5 membrane extracts and lysates (cross-link IP, co-IP); also called alpha-enolase; surface form ENO1

[2] = molecular target: T1, enolase 1 (ENO1), endogenous in CL1-5 …; experiment: flow cytometry on live CL1-5 cells

T1 sequence (P06733 2-434): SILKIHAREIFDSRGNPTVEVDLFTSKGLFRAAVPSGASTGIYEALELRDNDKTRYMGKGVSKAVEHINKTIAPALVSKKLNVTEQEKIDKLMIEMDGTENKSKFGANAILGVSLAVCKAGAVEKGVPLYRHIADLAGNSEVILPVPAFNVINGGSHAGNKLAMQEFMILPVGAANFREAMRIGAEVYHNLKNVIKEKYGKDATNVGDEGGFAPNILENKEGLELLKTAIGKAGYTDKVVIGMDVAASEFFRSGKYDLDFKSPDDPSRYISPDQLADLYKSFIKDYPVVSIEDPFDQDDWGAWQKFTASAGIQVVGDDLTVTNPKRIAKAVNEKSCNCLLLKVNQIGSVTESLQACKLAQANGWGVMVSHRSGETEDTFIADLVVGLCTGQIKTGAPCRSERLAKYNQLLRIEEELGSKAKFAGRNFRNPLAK

B1: chimeric ENO1-22 (chENO1-22) (antibody, V domains shown)
VH: QVQLQQSGPEVVRPGVSVKISCKGSGYTFTDYAMHWVKQSHAKSLEWIGVISTYNGNTNYNQKFKGKATMTVDKSSSTAYMELARLTSEDSAIYYCARSPLRYWGQGTTLTVSS
VL: QIVLSQSPAILSASPGEKVTMTCRASSSVSYMHWYQQKPGSSPKPWIYATSNLASGVPARFSGSGSGTSYSLTISRVEAEDAATYYCQQWSSNPLTFGAGTKLELK
notes: Variable domain of anti-ENO1 mAb-22 cloned into a human IgG Fc vector; also called chimeric ENO1 mAb; chimeric ENO1 antibody
- binding result [1]: binds

B2: anti-ENO1 mAb-22 (antibody, V domains shown)
VH: QVQLQQSGPEVVRPGVSVKISCKGSGYTFTDYAMHWVKQSHAKSLEWIGVISTYNGNTNYNQKFKGKATMTVDKSSSTAYMELARLTSEDSAIYYCARSPLRYWGQGTTLTVSS
VL: QIVLSQSPAILSASPGEKVTMTCRASSSVSYMHWYQQKPGSSPKPWIYATSNLASGVPARFSGSGSGTSYSLTISRVEAEDAATYYCQQWSSNPLTFGAGTKLELK
notes: Mouse hybridoma monoclonal antibody; also called ENO1-22; anti-ENO1 mAb-22 antibody
- binding result [2]: binds
